The conditions of this data set: pH 6.2, Thermal, DSC, Na-acetate 10 mM, NaCl 0.05 M, reversible: yes, whole UniProt chain shown.

B1: Ribonuclease wild type, P00648 (protein)
chain: MMKMEGIALKKRLSWISVCLLVLVSAAGMLFSTAAKTETSSHKAHTEAQVINTFDGVADYLQTYHKLPDNYITKSEAQALGWVASKGNLADVAPGKSIGGDIFSNREGKLPGKSGRTWREADINYTSGFRNSDRILYSSDWLIYKTTDHYQTFTKIR
For B1, where the note is “Bacillus amyloliquefaciens”, the melting temperature (Tm) amounted to 54.5 °C, the “unfolding enthalpy (calorimetric)” value is 129 kcal/mol and the “unfolding enthalpy (van 't Hoff)” value was determined as 130 kcal/mol.

B2: Ribonuclease wild type, P00649 (protein)
chain: MKKISSVFTMFALIAAILFSGFIPQQAYAETPLTQTATNETATIQLTSDVHTLAVINTFDGVADYLIRYKRLPDNYITKSQASALGWVASKGNLAEVAPGKSIGGDVFSNREGRLPSASGRTWREADINYVSGFRNADRLVYSSDWLIYKTTDHYATFTRIR
Regarding B2, where the note is “Bacillus intermedius”, the Tm came out at 56.5 °C, the “unfolding enthalpy (calorimetric)” value is 124 kcal/mol and the “unfolding enthalpy (van 't Hoff)” value was found to be 126 kcal/mol.

B3: Barstar wild type, P11540 (protein)
chain: MKKAVINGEQIRSISDLHQTLKKELALPEYYGENLDALWDCLTGWVEYPLVLEWRQFEQSKQLTENGAESVLQVFREAKAEGCDITIILS
On to B3, for which, for the setting “Bacillus amyloliquefaciens”, the Tm came out at 73.3 °C, the “unfolding enthalpy (calorimetric)” value turned out to be 53 kcal/mol and the “unfolding enthalpy (van 't Hoff)” value amounted to 76 kcal/mol.

As a reminder, the Tm is the temperature at which the thermal transition is half complete.

Source of the values: FireProtDB (doi:10.1016/s0014-5793(99)00158-1).
